Results reported in article PMC9371924, “Exploration of DNA processing features unravels novel properties of ICE conjugation in Gram-positive bacteria”.
Residue numbers refer to the chain shown, from its start.

Key:
[1] = molecular target: T1, RelSt3 (MOBT relaxase) (Streptococcus thermophilus (ICESt3)) (UniProt Q935T7); assay: EMSA; settings: PAGE EMSA: 20 mM Tris-HCl (pH not stated), 500 mM NaCl, 100 ug/ml salmon sperm DNA, 0.11 uM DNA, 15 min 37 C, gel run at 4 C; agarose EMSA: 400 ng DNA in …
T1 sequence: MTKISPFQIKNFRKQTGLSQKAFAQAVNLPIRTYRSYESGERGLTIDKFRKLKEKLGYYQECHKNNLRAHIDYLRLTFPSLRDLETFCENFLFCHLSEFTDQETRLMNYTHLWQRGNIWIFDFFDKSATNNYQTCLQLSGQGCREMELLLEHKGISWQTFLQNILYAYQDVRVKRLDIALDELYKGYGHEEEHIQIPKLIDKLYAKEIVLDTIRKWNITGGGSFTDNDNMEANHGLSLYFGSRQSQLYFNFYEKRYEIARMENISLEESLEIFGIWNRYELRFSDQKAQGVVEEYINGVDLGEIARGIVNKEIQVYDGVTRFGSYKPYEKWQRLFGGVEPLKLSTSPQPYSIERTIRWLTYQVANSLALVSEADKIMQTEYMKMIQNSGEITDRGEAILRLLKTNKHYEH

[2] = molecular target: T2, RelSt3 (MOBT relaxase) (Streptococcus thermophilus (ICESt3)) (UniProt Q935T7); assay: EMSA; settings: PAGE EMSA: 20 mM Tris-HCl (pH not stated), 500 mM NaCl, 100 ug/ml salmon sperm DNA, 0.11 uM DNA, 15 min 37 C, gel run at 4 C; agarose EMSA: 400 ng DNA in …; remark: listed apart in the source
T2 sequence: T1 sequence with N28S, E61G, A128V, E190D, N229D, N297T, S324A, R333E

RelSt3 (MOBT relaxase) [3] = molecular target: T3, RelSt3 (MOBT relaxase) (Streptococcus thermophilus (ICESt3), UniProt Q935T7 1-410); assay: EMSA; up to 6.4 uM; PAGE EMSA: 20 mM Tris-HCl (pH not stated), 500 mM NaCl, 100 ug/ml salmon sperm DNA, 0.11 uM DNA, 15 min 37 C, gel run at 4 C; agarose EMSA: 400 ng DNA in 20 ul, 15 min 37 C; settings: protein: recombinant; tags: N-terminal 6xHis-TEV (pSKB3); label: 5' 6-FAM; blunt
T3 sequence: T1 sequence with N28S, E61G, A128V, E190D, N229D, N297T, S324A, R333E

RelSt3 (MOBT relaxase) [4] = molecular target: T3, RelSt3 (MOBT relaxase); assay: EMSA; PAGE EMSA: 20 mM Tris-HCl (pH not stated), 500 mM NaCl, 100 ug/ml salmon sperm DNA, 0.11 uM DNA, 15 min 37 C, gel run at 4 C; agarose EMSA: 400 ng DNA in 20 ul, 15 min 37 C; settings: protein: recombinant, tags: N-terminal 6xHis-TEV (pSKB3), label: 5' 6-FAM, blunt
[5] = molecular target: T4, RelSt3(64-410), HTH deleted (Streptococcus thermophilus (ICESt3), UniProt Q935T7 64-410); assay: EMSA; up to 1.75 uM; PAGE EMSA: 20 mM Tris-HCl (pH not stated), 500 mM NaCl, 100 ug/ml salmon sperm DNA, 0.11 uM DNA, 15 min 37 C, gel run at 4 C; agarose EMSA: 400 ng DNA in 20 ul, 15 min 37 C; settings: protein: recombinant; tags: N-terminal 6xHis-TEV (pSKB3); label: 5' 6-FAM; blunt; possible cruciform
T4 sequence: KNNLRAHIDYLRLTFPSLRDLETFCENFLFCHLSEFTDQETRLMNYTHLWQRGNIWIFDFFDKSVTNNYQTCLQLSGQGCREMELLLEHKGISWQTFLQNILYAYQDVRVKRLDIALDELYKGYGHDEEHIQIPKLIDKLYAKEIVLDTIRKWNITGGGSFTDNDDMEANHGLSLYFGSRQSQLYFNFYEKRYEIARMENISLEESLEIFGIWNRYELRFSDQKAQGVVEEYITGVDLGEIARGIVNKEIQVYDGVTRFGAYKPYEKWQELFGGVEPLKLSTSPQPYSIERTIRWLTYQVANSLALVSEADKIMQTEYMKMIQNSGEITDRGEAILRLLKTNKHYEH

RelSt3 R32A-R35A = molecular target: T5, RelSt3 R32A-R35A (Streptococcus thermophilus (ICESt3), UniProt Q935T7 1-410, R32A;R35A); assay: EMSA; up to 6.4 uM; PAGE EMSA: 20 mM Tris-HCl (pH not stated), 500 mM NaCl, 100 ug/ml salmon sperm DNA, 0.11 uM DNA, 15 min 37 C, gel run at 4 C; agarose EMSA: 400 ng DNA in 20 ul, 15 min 37 C; settings: protein: recombinant; tags: N-terminal 6xHis-TEV (pSKB3); label: 5' 6-FAM; blunt; possible cruciform
T5 sequence: T1 sequence with N28S, R32A, R35A, E61G, A128V, E190D, N229D, N297T, S324A, R333E

RelSt3 (MOBT relaxase) [6] = molecular target: T3, RelSt3 (MOBT relaxase); assay: EMSA; apparent Kd; PAGE EMSA: 20 mM Tris-HCl (pH not stated), 500 mM NaCl, 100 ug/ml salmon sperm DNA, 0.11 uM DNA, 15 min 37 C, gel run at 4 C; agarose EMSA: 400 ng DNA in 20 ul, 15 min 37 C; settings: protein: recombinant; tags: N-terminal 6xHis-TEV (pSKB3); label: 5' 6-FAM; blunt; possible cruciform
RelSt3 (MOBT relaxase) [7] = molecular target: T3, RelSt3 (MOBT relaxase); assay: EMSA; data not shown; PAGE EMSA: 20 mM Tris-HCl (pH not stated), 500 mM NaCl, 100 ug/ml salmon sperm DNA, 0.11 uM DNA, 15 min 37 C, gel run at 4 C; agarose EMSA: 400 ng DNA in 20 ul, 15 min 37 C; settings: protein: recombinant; tags: N-terminal 6xHis-TEV (pSKB3); label: 5' 6-FAM; blunt

Q: “AAAAAGAATTCTGTTCATCATGGGCTAGGACAAGGGCAAGGACAAGCCTGACCACAGGTCAGGCGCAGACCGTAGCCCGAAGTTCCTAGGCCATGATGAGACTTCAACCCCCGATTTCTAATAGGGGGGTTACATTTGGCCAAAGTGCCACGTCCACCCCTCCTCATTCCTTGTGGGAGTTGGGATTTCAAGATTTAGAAAGTGTGTCACTTTGGTCCAAAAAGTGTGTCACTTAGTCAAAAGGAGGTGTTCCCATGAATGACTAAAATAAGTCCCTTTCAGATCAAGGGCCCTTTTT (double strand) [oriT1 PCR product]” was tested. Which binding [1] did it give?
A: binds

Q: How did the Kd [2] turn out when “GAGACTTCAACCCCCGATTTCTAATAGGGGGGTTACATTTTCAAGATTTAGAAAGTGTGTCACTTTGGTCCAAAAAGTGTGTCACTTAGTCAAAAGGAG / CTCCTTTTGACTAAGTGACACACTTTTTGGACCAAAGTGACACACTTTCTAAATCTTGA [ori50 (ss nic region + ds IR2)]” was run?
A: 3200 nM

B1: ori46 (IR1, nic site) (dsDNA)
DNA 1: GAGACTTCAACCCCCGATTTCTAATAGGGGGGTTACAT
DNA 2: ATGTAACCCCCCTATTAGAAATCGGGGGTTGAAGTCTC
Q: Does B1 bind (RelSt3 (MOBT relaxase) [3])?
A: no binding

B2: ori41M5 (IR2a mutated) (dsDNA)
DNA 1: TCAAGATTTAGACGATACGCTGACGTGGTCCAAAAAGTGTGTCACTTAGTCAAAAGGAG
DNA 2: CTCCTTTTGACTAAGTGACACACTTTTTGGACCACGTCAGCGTATCGTCTAAATCTTGA
Q: Does B2 bind (RelSt3 (MOBT relaxase) [4])?
A: no binding

B3: ori41 (ori41WT) dsDNA, full IR2 (dsDNA)
DNA 1: TCAAGATTTAGAAAGTGTGTCACTTTGGTCCAAAAAGTGTGTCACTTAGTCAAAAGGAG
DNA 2: CTCCTTTTGACTAAGTGACACACTTTTTGGACCAAAGTGACACACTTTCTAAATCTTGA
Q: Does B3 bind [5]?
A: no binding

Q: Does B3 bind (RelSt3 R32A-R35A)?
A: no binding

Q: And the Kd (RelSt3 (MOBT relaxase) [6])?
A: ~1600 nM

B4: ori41M11 (IR2 replaced by IR of same length and GC%) (dsDNA)
DNA 1: TCAAGATTTAGACGATACGCTATCGTGGTCCAAACGATACGCTATCGAGTCAAAAGGAG
DNA 2: CTCCTTTTGACTCGATAGCGTATCGTTTGGACCACGATAGCGTATCGTCTAAATCTTGA
Q: Does B4 bind (RelSt3 (MOBT relaxase) [4]; possible hairpin)?
A: no binding

B5: ori41M6 (IR2b mutated) (dsDNA)
DNA 1: TCAAGATTTAGAAAGTGTGTCACTTTGGTCCAAACGATACGCTGACGAGTCAAAAGGAG
DNA 2: CTCCTTTTGACTCGTCAGCGTATCGTTTGGACCAAAGTGACACACTTTCTAAATCTTGA
Q: Does B5 bind (RelSt3 (MOBT relaxase) [4])?
A: no binding

B6: ori47 (IR1-IR2 spacer) (dsDNA)
DNA 1: ACATTTGGCCAAAGTGCCACGTCCACCCCTCCTCATTCCTTGTGGGAGTTGGGATTTCAAGATTTAGA
DNA 2: TCTAAATCTTGAAATCCCAACTCCCACAAGGAATGAGGAGGGGTGGACGTGGCACTTTGGCCAAATGT
Q: Does B6 bind (RelSt3 (MOBT relaxase) [7])?
A: no binding

B7: non-specific dsDNA (dsDNA)
DNA 1: CTTACCGATAAGAACTTACCGCTCCTATGAATCTGGGGAAAGAGGTCTGACCATTGACAAGTTTCGAAAACTCAAAGAAAAGC
DNA 2: GCTTTTCTTTGAGTTTTCGAAACTTGTCAATGGTCAGACCTCTTTCCCCAGATTCATAGGAGCGGTAAGTTCTTATCGGTAAG
Q: Does B7 bind (RelSt3 (MOBT relaxase) [3])?
A: no binding
